According to the supplement of paper PMC11246515:
± gives the standard deviation of the averaged measurements.

Experiment: total protein half-life in vivo (active degradation + dilution); higher = more stable protein
[1] = wild type E. coli NCM3722, growth: C-lim chemostat, doubling time 3 h
[2] = wild type E. coli NCM3722, growth: P-lim chemostat, doubling time 12 h
[3] = E. coli NCM3722 delta-clpP delta-lon delta-hslV, growth: N-lim chemostat, doubling time 6 h
[4] = E. coli NCM3722 delta-clpP, growth: N-lim chemostat, doubling time 6 h
[5] = E. coli NCM3722 delta-hslV, growth: N-lim chemostat, doubling time 6 h
[6] = E. coli NCM3722 delta-lon, growth: N-lim chemostat, doubling time 6 h
[7] = E. coli NCM3722 delta-smpB, growth: N-lim chemostat, doubling time 6 h
[8] = wild type E. coli NCM3722, growth: C-lim chemostat, doubling time 6 h
[9] = wild type E. coli NCM3722, growth: C-lim chemostat, doubling time 12 h
[10] = wild type E. coli NCM3722, growth: N-lim chemostat, doubling time 6 h
[11] = wild type E. coli NCM3722, growth: N-lim chemostat, doubling time 12 h
[12] = wild type E. coli NCM3722, growth: P-lim chemostat, doubling time 6 h

Sequence	total protein half-life in vivo [1] [h]	total protein half-life in vivo [2] [h]	total protein half-life in vivo [3] [h]	total protein half-life in vivo [4] [h]	total protein half-life in vivo [5] [h]	total protein half-life in vivo [6] [h]	total protein half-life in vivo [7] [h]	total protein half-life in vivo [8] [h]	total protein half-life in vivo [9] [h]	total protein half-life in vivo [10] [h]	total protein half-life in vivo [11] [h]	total protein half-life in vivo [12] [h]
MRVLIKNGTVVNADGQAKQDLLIESGIVRQLGNNISPQLPYEEIDATGCYVFPGGVDVHTHFNIDVGIARSCDDFFTGTRAAACGGTTTIIDHMGFGPNGCRLRHQLEVYRGYAAHKAVIDYSFHGVIQHINHAILDEIPMIVEEGLSSFKLYLTYQYKLNDDEVLQALRRLHESGALTTVHPENDAAIASKRAEFIAAGLTAPRYHALSRPLECEAEAIARMINLAQIAGNAPLYIVHLSNGLGLDYLRLARANHQPVWVETCPQYLLLDERSYDTEDGMKFILSPPLRNVREQDKLWCGISDGAIDVVATDHCTFSMAQRLQISKGDFSRCPNGLPGVENRMQLLFSSGVMTGRITPERFVELTSAMPARLFGLWPQKGLLAPGSDGDVVIIDPRQSQQIQHRHLHDNADYSPWEGFTCQGAIVRTLSRGETIFCDGTFTGKAGRGRFLRRKPFVPPVL	> 4	12.1										
MRVLIVKTSSMGDVLHTLPALTDAQQAIPGIKFDWVVEEGFAQIPSWHAAVERVIPVAIRRWRKAWFSAPIKAERKAFREALQAENYDAVIDAQGLVKSAALVTRLAHGVKHGMDWQTAREPLASLFYNRKHHIAKQQHAVERTRELFAKSLGYSKPQTQGDYAIAQHFLTNLPTDAGEYAVFLHATTRDDKHWPEEHWRELIGLLADSGIRIKLPWGAPHEEERAKRLAEGFAYVEVLPKMSLEGVARVLAGAKFVVSVDTGLSHLTAALDRPNITVYGPTDPGLIGGYGKNQMVCRAPRENLINLNSQAVLEKLSSL	2.76 ± 0.13	10.63 ± 0.039	5.54 ± 0.21	5.02 ± 0.34	5.1	5.08 ± 0.063	5.74 ± 1.2	5.73 ± 0.28	13.2 ± 2.2	5.72 ± 0.27	11.5 ± 2.6	5.23 ± 0.16
MRVLKFGGTSVANAERFLRVADILESNARQGQVATVLSAPAKITNHLVAMIEKTISGQDALPNISDAERIFAELLTGLAAAQPGFPLAQLKTFVDQEFAQIKHVLHGISLLGQCPDSINAALICRGEKMSIAIMAGVLEARGHNVTVIDPVEKLLAVGHYLESTVDIAESTRRIAASRIPADHMVLMAGFTAGNEKGELVVLGRNGSDYSAAVLAACLRADCCEIWTDVDGVYTCDPRQVPDARLLKSMSYQEAMELSYFGAKVLHPRTITPIAQFQIPCLIKNTGNPQAPGTLIGASRDEDELPVKGISNLNNMAMFSVSGPGMKGMVGMAARVFAAMSRARISVVLITQSSSEYSISFCVPQSDCVRAERAMQEEFYLELKEGLLEPLAVTERLAIISVVGDGMRTLRGISAKFFAALARANINIVAIAQGSSERSISVVVNNDDATTGVRVTHQMLFNTDQVIEVFVIGVGGVGGALLEQLKRQQSWLKNKHIDLRVCGVANSKALLTNVHGLNLENWQEELAQAKEPFNLGRLIRLVKEYHLLNPVIVDCTSSQAVADQYADFLREGFHVVTPNKKANTSSMDYYHQLRYAAEKSRRKFLYDTNVGAGLPVIENLQNLLNAGDELMKFSGILSGSLSYIFGKLDEGMSFSEATTLAREMGYTEPDPRDDLSGMDVARKLLILARETGRELELADIEIEPVLPAEFNAEGDVAAFMANLSQLDDLFAARVAKARDEGKVLRYVGNIDEDGVCRVKIAEVDGNDPLFKVKNGENALAFYSHYYQPLPLVLRGYGAGNDVTAAGVFADLLRTLSWKLGV	3.08 ± 0.21	12.2 ± 0.26	5.65 ± 0.16	4.31 ± 0.13	4.513 ± 0.01	4.89 ± 0.11	4.13 ± 0.11	5.9 ± 0.22	13.5 ± 0.33	4.29 ± 0.33	7.56 ± 0.76	6.53 ± 0.39
MRVLLFLLLSLFMLPAFSADNLLRWHDAQHFTVQASTPLKAKRAWKLCALYPSLKDSYWLSLNYGMQEAARRYGVDLKVLEAGGYSQLATQQAQIDQCKQWGAEAILLGSSTTSFPDLQKQVASLPVIELVNAIDAPQVKSRVGVPWFQMGYQPGRYLVQWAHGKPLNVLLMPGPDNAGGSKEMVEGFRAAIAGSPVRIVDIALGDNDIEIQRNLLQEMLERHPEIDVVAGTAIAAEAAMGEGRNLKTPLTVVSFYLSHQVYRGLKRGRVIMAASDQMVWQGELAVEQAIRQLQGQSVSDNVSPPILVLTPKNADREHIRRSLSPGGFRPVYFYQHTSAAKK		6.77 ± 2.5	6.15 ± 0.33	5.43 ± 0.75	3.15 ± 0.62	4.15 ± 1.5	3.08		4.04	3.87 ± 1.8	9.91 ± 3.2	4.02
MRVNNGLTPQELEAYGISDVHDIVYNPSYDLLYQEELDPSLTGYERGVLTNLGAVAVDTGIFTGRSPKDKYIVRDDTTRDTFWWADKGKGKNDNKPLSPETWQHLKGLVTRQLSGKRLFVVDAFCGANPDTRLSVRFITEVAWQAHFVKNMFIRPSDEELAGFKPDFIVMNGAKCTNPQWKEQGLNSENFVAFNLTERMQLIGGTWYGGEMKKGMFSMMNYLLPLKGIASMHCSANVGEKGDVAVFFGLSGTGKTTLSTDPKRRLIGDDEHGWDDDGVFNFEGGCYAKTIKLSKEAEPEIYNAIRRDALLENVTVREDGTIDFDDGSKTENTRVSYPIYHIDNIVKPVSKAGHATKVIFLTADAFGVLPPVSRLTADQTQYHFLSGFTAKLAGTERGITEPTPTFSACFGAAFLSLHPTQYAEVLVKRMQAAGAQAYLVNTGWNGTGKRISIKDTRAIIDAILNGSLDNAETFTLPMFNLAIPTELPGVDTKILDPRNTYASPEQWQEKAETLAKLFIDNFDKYTDTPAGAALVAAGPKL	3.53 ± 0.18	10.7 ± 0.72	4.17 ± 0.081	3.55 ± 0.13	3.29 ± 0.037	4.19 ± 0.05	3.45 ± 0.21	6.17 ± 0.42	10.5 ± 0.7	3.69 ± 0.2	5.13 ± 0.55	5.5 ± 0.58
MRVTDFSFELPESLIAHYPMPERSSCRLLSLDGPTGALTHGTFTDLLDKLNPGDLLVFNNTRVIPARLFGRKASGGKIEVLVERMLDDKRILAHIRASKAPKPGAELLLGDDESINATMTARHGALFEVEFNDERSVLDILNSIGHMPLPPYIDRPDEDADRELYQTVYSEKPGAVAAPTAGLHFDEPLLEKLRAKGVEMAFVTLHVGAGTFQPVRVDTIEDHIMHSEYAEVPQDVVDAVLAAKARGNRVIAVGTTSVRSLESAAQAAKNDLIEPFFDDTQIFIYPGFQYKVVDALVTNFHLPESTLIMLVSAFAGYQHTMNAYKAAVEEKYRFFSYGDAMFITYNPQAINERVGE [P0A7F9]	2.85 ± 0.04	9.48 ± 0.17	4.09 ± 0.78	3.64 ± 0.2	4.44 ± 1.4	4.49 ± 0.24	3.41 ± 0.096	4.82 ± 0.32	7.45 ± 0.19	3.66 ± 0.14	5.03 ± 0.34	5.46 ± 0.24
MRYDKELTENEMIRQKILQQLLEWIECNLEHPISIEDIAQKSGYSRRNIQLLFRNFMHVPLGEYIRKRRLCRAAILVRLTAKSMLDIALSLHFDSQQSFSREFKKLFGCSPREYRHRDYWDLANIFPSFLIRQQQKTECRLINFPETPIFGNSFKYDIEVSNKSPDEEVKLRRHHLARCMKNFKTDIYFVSTFEPSTKSVDLLTVETFAGTVCEYADMPKEWTTTRGLYDPTHVIWTQA			> 8									
MRYHGDMLLTTPVISTLKQNYPDAKIDMLLYQDTIPILSENPEINALYGISNKGAGTFDKIKNVLSLIKTLRANNYDLVINLTDQWMVALLVRCLPARMKISQLYGHRQHGIWKKSFTHLAPIHGTHIVERNLSVLEPLGITDFYTDTTMSYAEDCWKKMRRELDALGVKDHYVVIQPTARQIFKCWDNDKFSKVIDALQQRGYQVVLTCGPSADDLACVDEIARGCETKPITGLAGKTRFPELGALIDHAVLFIGVDSAPGHIAAAVKTPVISLFGATDHVFWRPWTENIIQFWAGNYQKMPTRHELDRNKKYLSVIPAEDVIAATEKLLPEDAPSADRNAQL	3.141 ± 0.0067	11.3 ± 1.1	6.088 ± 0.042	6.21 ± 0.39	6.87 ± 0.63		4.85 ± 0.32	6.09 ± 0.63	11.7 ± 0.39	5.89 ± 0.19	11.9 ± 0.99	5.59 ± 0.42
MRYIKSITQQKLSFLLAIYIGLFMNGAVFYRRFGSYAHDFTVWKGISAVVELAATVLVTFFLLRLLSLFGRRSWRILASLVVLFSAGASYYMTFLNVVIGYGIIASVMTTDIDLSKEVVGLNFILWLIAVSALPLILIWNNRCRYTLLRQLRTPGQRIRSLAVVVLAGIMVWAPIRLLDIQQKKVERATGVDLPSYGGVVANSYLPSNWLSALGLYAWARVDESSDNNSLLNPAKKFTYQAPQNVDDTYVVFIIGETTRWDHMGIFGYERNTTPKLAQEKNLAAFRGYSCDTATKLSLRCMFVRQGGAEDNPQRTLKEQNIFAVLKQLGFSSDLYAMQSEMWFYSNTMADNIAYREQIGAEPRNRGKPVDDMLLVDEMQQSLGRNPDGKHLIILHTKGSHFNYTQRYPRSFAQWKPECIGVDSGCTKAQMINSYDNSVTYVDHFISSVIDQVRDKKAIVFYAADHGESINEREHLHGTPRELAPPEQFRVPMMVWMSDKYLENPANAQAFAQLKKEADMKVPRRHVELYDTIMGCLGYTSPDGGINENNNWCHIPQAKEAAAN	2.87 ± 0.19	6.76 ± 1.3	4 ± 0.3		4.35 ± 1.7	6.45 ± 0.89	3.61 ± 0.3	4.84 ± 0.023	8.037 ± 0.012	5.66 ± 0.37	8.75 ± 0.59	4.14 ± 1.1
MRYPVTLTPAPEGGYMVSFVDIPEALTQGETVAEAMEAAKDALLTAFDFYFEDNELIPLPSPLNSHDHFIEVPLSVASKVLLLNAFLQSEITQQELARRIGKPKQEITRLFNLHHATKIDAVQLAAKALGKELSLVMV		3.2 ± 0.94										1.45
MRYSKLTMLIPCALLLSACTTVTPAYKDNGTRSGPCVEGGPDNVAQQFYDYRILHRSNDITALRPYLSDKLATLLSDASRDNNHRELLTNDPFSSRTTLPDSAHVASASTIPNRDARNIPLRVDLKQGDQGWQDEVLMIQEGQCWVIDDVRYLGGSVHATAGTLRQSIENR	2.89 ± 0.099	13.7 ± 0.35		5.61 ± 1.2	6.1159 ± 0.0003		6.06 ± 0.54	6.3 ± 0.064	12.9 ± 1	6.03 ± 0.21	12.6 ± 1.1	6.22 ± 0.44
MSAFTPASEVLLRHSDDFEQSRILFAGDLQDDLPARLDTAASRAHTQQFHHWQVLSRQMGDNARFSLVATADDVADCDTLIYYWPKNKPEAQFQLMNLLSLLPVGTDIFVVGENRSGVRSAEQMLADYAPLNKVDSARRCGLYFGRLEKQPVFDAEKFWGEYSVDGLTVKTLPGVFSRDGLDVGSQLLLSTLTPHTKGKVLDVGCGAGVLSVAFARHSPKIRLTLCDVSAPAVEASRATLAANGVEGEVFASNVFSEVKGRFDMIISNPPFHDGMQTSLDAAQTLIRGAVRHLNSGGELRIVANAFLPYPDVLDETFGFHEVIAQTGRFKVYRAIMTRQAKKG	2.93 ± 0.21	12.9 ± 0.31	6.65 ± 1.3	5.678 ± 0.047	6.2 ± 0.67	6.21 ± 0.59	5.56 ± 0.52	6.41 ± 0.39	11.6 ± 0.39	5.68 ± 0.71	11.1 ± 1.8	6 ± 0.36
MSAGSPKFTVRRIAALSLVSLWLAGCSDTSNPPAPVSSVNGNAPANTNSGMLITPPPKMGTTSTAQQPQIQPVQQPQIQATQQPQIQPVQPVAQQPVQMENGRIVYNRQYGNIPKGSYSGSTYTVKKGDTLFYIAWITGNDFRDLAQRNNIQAPYALNVGQTLQVGNASGTPITGGNAITQADAAEQGVVIKPAQNSTVAVASQPTITYSESSGEQSANKMLPNNKPTATTVTAPVTVPTASTTEPTVSSTSTSTPISTWRWPTEGKVIETFGASEGGNKGIDIAGSKGQAIIATADGRVVYAGNALRGYGNLIIIKHNDDYLSAYAHNDTMLVREQQEVKAGQKIATMGSTGTSSTRLHFEIRYKGKSVNPLRYLPQR [P0ADA3]	2.926 ± 0.019	12 ± 0.81	5.97 ± 0.43	6.2 ± 0.18	6.44 ± 0.29	7.02 ± 0.32	6.32 ± 0.11	5.92 ± 0.28	12.8 ± 3.5	6.01 ± 0.067		5.81 ± 0.16
